This is an account of results in PMC6445466 (2019).

B1: BAD16-C (residues 204-352, B. afzelii strain PGau) (domain or fragment)
chain: SNRYESYLEGVKYNVSSAIKTIVKIYDNYTLLSTKQTQMYSTRLDNLAKAKAREEAKKFTKEELEKDLKTLLNYIQVSARTATNFVYAREIYSKRKLDAIETEIKNLVLKIKGQSDLYEAYKAIVRSILLMKDSLKIIEIVIDKNGVWY

One assay concerns the target human C1 complex (human, UniProt P02745 23-245; P02746 28-253; P02747 29-245). In words: SPR.
Assay [1] has as its target B1. In words: SPR.

In general, Kd refers to the concentration at which binding is half-saturated. For the molecule B1, the Kd in the assay with human C1 complex was 5.4 nM.

B2: BBK32-C (residues 206-354, B. burgdorferi strain B31) (domain or fragment)
chain: SNRYQSYLEGVKYNVDSAIQTITKIYNTYTLFSTKLTQMYSTRLDNFAKAKAKEEAAKFTKEDLEKNFKTLLNYIQVSVKTAANFVYINDTHAKRKLENIEAEIKTLIAKIKEQSNLYEAYKAIVTSILLMRDSLKEVQGIIDKNGVWY
B2: the affinity in the assay with human C1 complex, expressed as Kd, was 6 nM.

B3: human C1r, full-length enzyme (enzyme)
chain: SIPIPQKLFGEVTSPLFPKPYPNNFETTTVITVPTGYRVKLVFQQFDLEPSEGCFYDYVKISADKKSLGRFCGQLGSPLGNPPGKKEFMSQGNKMLLTFHTDFSNEENGTIMFYKGFLAYYQAVDLDECASRSKSGEEDPQPQCQHLCHNYVGGYFCSCRPGYELQEDTHSCQAECSSELYTEASGYISSLEYPRSYPPDLRCNYSIRVERGLTLHLKFLEPFDIDDHQQVHCPYDQLQIYANGKNIGEFCGKQRPPDLDTSSNAVDLLFFTDESGDSRGWKLRYTTEIIKCPQPKTLDEFTIIQNLQPQYQFRDYFIATCKQGYQLIEGNQVLHSFTAVCQDDGTWHRAMPRCKIKDCGQPRNLPNGDFRYTTTMGVNTYKARIQYYCHEPYYKMQTRAGSRESEQGVYTCTAQGIWKNEQKGEKIPRCLPVCGKPVNPVEQRQRIIGGQKAKMGNFPWQVFTNIHGRGGGALLGDRWILTAAHTLYPKEHEAQSNASLDVFLGHTNVEELMKLGNHPIRRVSVHPDYRQDESYNFEGDIALLELENSVTLGPNLLPICLPDNDTFYDLGLMGYVSGFGVMEEKIAHDLRFVRLPVANPQACENWLRGKNRMDVFSQNMFCAGHPSLKQDACQGDSGGVFAVRDPNTDRWVATGIVSWGIGCSRGYGFYTKVLNYVDWIKKEMEEED
On to B3, for which the dissociation constant (Kd) in assay [1] stood at 2.2 nM.
